In patent US20150071856A1 (UNIVERSITEIT MAASTRICHT, published 2015):
No end group written: not given here. alkyl = not defined here

Experiments:
[1] = biological target: T1, rFzd-1 (frizzled-1 receptor) (rat, UniProt Q08463 69-641); assay: cell-based or functional assay
[2] = biological target: T2, rFzd-2 (frizzled-2 receptor) (rat, UniProt Q08464 29-570); assay: cell-based or functional assay
[3] = biological target: T1, rFzd-1 (frizzled-1 receptor); assay: cell-based or functional assay; remark: listed apart in the source
[4] = biological target: T2, rFzd-2 (frizzled-2 receptor); assay: cell-based or functional assay; remark: listed apart in the source
mouse Fzd-1 = biological target: T3, mouse Fzd-1 (mouse, UniProt O70421 69-642); assay: competition: UM207 (1.10^-7 M) pre-incubated on mouse tissue sections, competitor UM206-rhodamine
T3 construct: whole, on cells; also called frizzled-1 (mouse)
Description: (§1) Specificity of the binding site was confirmed by prior incubation of the tissue sections with UM207 (1.10⁻⁷ M) or recombinant Wnt3a (1.10⁻⁸ M). Both compounds completely abolished the binding of UM206-rhodamine to its receptors.

mouse Fzd-2 = biological target: T4, mouse Fzd-2 (mouse, UniProt Q9JIP6 29-570); assay: as above
T4 construct: whole, on cells; also called frizzled-2 (mouse)
Description: as §1

T1 sequence (Q08463 69-641): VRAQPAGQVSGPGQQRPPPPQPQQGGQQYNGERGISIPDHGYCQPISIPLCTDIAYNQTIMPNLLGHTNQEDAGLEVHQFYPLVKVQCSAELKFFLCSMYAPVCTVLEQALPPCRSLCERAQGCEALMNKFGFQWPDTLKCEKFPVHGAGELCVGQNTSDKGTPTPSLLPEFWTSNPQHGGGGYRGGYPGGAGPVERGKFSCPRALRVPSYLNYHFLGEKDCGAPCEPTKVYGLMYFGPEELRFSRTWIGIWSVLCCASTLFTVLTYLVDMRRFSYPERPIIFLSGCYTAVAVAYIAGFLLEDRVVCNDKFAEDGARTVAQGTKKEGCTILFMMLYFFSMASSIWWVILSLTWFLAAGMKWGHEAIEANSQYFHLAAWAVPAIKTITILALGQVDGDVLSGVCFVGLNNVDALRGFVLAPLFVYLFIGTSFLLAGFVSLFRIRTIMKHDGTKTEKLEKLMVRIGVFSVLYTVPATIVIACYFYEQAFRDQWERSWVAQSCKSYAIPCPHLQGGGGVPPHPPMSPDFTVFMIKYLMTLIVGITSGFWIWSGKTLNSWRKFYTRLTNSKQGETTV
T2 sequence (Q08464 29-570): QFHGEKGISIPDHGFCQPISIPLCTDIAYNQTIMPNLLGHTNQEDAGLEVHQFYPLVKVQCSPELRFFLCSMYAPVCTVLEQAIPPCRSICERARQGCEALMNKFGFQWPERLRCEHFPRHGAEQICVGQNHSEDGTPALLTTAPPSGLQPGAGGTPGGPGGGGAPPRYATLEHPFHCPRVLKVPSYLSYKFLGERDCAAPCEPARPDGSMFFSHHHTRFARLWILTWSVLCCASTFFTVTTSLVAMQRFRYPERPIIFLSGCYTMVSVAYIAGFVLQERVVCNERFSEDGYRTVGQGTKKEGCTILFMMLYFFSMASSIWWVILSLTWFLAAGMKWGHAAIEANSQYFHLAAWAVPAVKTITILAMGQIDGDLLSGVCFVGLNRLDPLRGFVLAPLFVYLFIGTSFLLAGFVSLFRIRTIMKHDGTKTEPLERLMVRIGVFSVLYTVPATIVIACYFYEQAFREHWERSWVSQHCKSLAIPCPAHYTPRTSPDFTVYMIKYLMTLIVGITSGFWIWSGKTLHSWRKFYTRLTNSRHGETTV
T3 sequence (O70421 69-642): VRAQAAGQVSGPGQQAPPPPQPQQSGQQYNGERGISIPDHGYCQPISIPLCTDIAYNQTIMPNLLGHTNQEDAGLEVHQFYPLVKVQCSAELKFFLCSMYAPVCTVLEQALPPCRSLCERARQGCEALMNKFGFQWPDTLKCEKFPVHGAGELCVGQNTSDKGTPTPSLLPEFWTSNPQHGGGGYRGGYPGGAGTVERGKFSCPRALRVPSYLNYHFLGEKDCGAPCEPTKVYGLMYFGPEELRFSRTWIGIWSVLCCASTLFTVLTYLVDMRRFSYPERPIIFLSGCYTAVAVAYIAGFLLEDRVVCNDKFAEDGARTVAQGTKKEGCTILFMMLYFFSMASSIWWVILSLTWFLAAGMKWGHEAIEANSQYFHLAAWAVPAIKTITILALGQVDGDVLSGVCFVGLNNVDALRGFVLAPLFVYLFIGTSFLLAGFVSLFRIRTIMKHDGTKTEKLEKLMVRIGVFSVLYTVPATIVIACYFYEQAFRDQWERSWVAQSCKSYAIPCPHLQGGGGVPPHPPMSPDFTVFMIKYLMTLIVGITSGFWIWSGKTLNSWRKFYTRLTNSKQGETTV
T4 sequence (Q9JIP6 29-570): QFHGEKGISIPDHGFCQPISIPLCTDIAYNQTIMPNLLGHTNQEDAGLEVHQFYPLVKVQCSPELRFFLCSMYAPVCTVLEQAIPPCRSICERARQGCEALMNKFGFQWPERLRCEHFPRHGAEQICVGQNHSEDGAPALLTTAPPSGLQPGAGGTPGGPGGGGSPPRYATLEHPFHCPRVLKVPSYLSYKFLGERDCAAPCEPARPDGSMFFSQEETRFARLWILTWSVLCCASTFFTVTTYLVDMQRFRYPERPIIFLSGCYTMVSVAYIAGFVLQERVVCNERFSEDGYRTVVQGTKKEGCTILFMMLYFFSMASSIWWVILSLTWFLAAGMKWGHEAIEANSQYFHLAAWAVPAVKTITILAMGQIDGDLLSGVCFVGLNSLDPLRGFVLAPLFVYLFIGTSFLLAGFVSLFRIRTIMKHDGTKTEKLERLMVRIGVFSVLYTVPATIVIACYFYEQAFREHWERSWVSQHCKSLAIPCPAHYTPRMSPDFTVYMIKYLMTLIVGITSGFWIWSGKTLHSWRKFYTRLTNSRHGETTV

B1: Peptide UM206 (linear), Ac-Cys-Asn-Lys-Thr-Ser-Glu-Gly-Met-Asp-Gly-Cys-Glu-Leu-NH2 (peptide)
peptide: Ac-CNKTSEGMDGCEL-NH2
modifications: cysteine pairing not given here
B1 was tested, and the “IC50, inhibition of Wnt3a (10^-9 M)-induced luciferase, HEK293-superTOPflash, two-binding-state fit” value [1] was 2.1 nM, the “IC50, inhibition of Wnt3a (10^-9 M)-induced luciferase, HEK293-superTOPflash, two-binding-state fit” value [2] was 0.0169 nM and the “affinity ratio against rFzd-1, from reporter IC50 values” [2] was ~100 fold. For the same binder, the “% of inhibition of Wnt3a-induced luciferase activity (peptide at 1.10^-9 M)” value (“% of inhibition … (peptide at 1.10^-9 M)” for short) [3] was 72.2% and the “% of inhibition … (peptide at 1.10^-9 M)” value [4] was 75.1%.

B2: Peptide UM207 (linear), Ac-Gly-Ile-Lys-Glu-Cys-Gln-Tyr-Gln-Phe-Arg-His-Arg-Arg-Trp-Asn-Cys-Ser-Thr-Val-Asp-NH2 (peptide)
peptide: Ac-GIKECQYQFRHRRWNCSTVD-NH2
modifications: cysteine pairing not given here
B2 was tested, and the “IC50, inhibition of Wnt3a (10^-9 M)-induced luciferase, HEK293-superTOPflash, single binding site fit” value (shortened to “IC50, inhibition … single binding site fit”) [1] was 40 nM, the “IC50, inhibition … single binding site fit” value [2] was 15.2 nM and the binding result (mouse Fzd-1) was “binds”. B2: binds (mouse Fzd-2).

B3: UM208 (peptide)
peptide: GSCSLKTCWLQLAD
In the case of B3, the “IC50, inhibition … single binding site fit” value [1] is reported as 2060 nM and the “IC50, inhibition … single binding site fit” value [2] is reported as 2110 nM.

B4: UM206 (1 C = A) (peptide)
peptide: ANKTSEGMDGCEL
With B4 the “% of inhibition … (peptide at 1.10^-9 M)” value [3] was 70.8% and the “% of inhibition … (peptide at 1.10^-9 M)” value [4] was 82.6%.

B5: UM206 (2 N = A) (peptide)
peptide: CAKTSEGMDGCEL
B5 was tested, and the “% of inhibition … (peptide at 1.10^-9 M)” value [3] was 68% and the “% of inhibition … (peptide at 1.10^-9 M)” value [4] was 79.5%.

B6: UM206 (3 K = A) (peptide)
peptide: CNATSEGMDGCEL
With B6 the “% of inhibition … (peptide at 1.10^-9 M)” value [3] was 70.8% and the “% of inhibition … (peptide at 1.10^-9 M)” value [4] was 84.9%.

B7: UM206 (4 T = A) (peptide)
peptide: CNKASEGMDGCEL
With B7 the “% of inhibition … (peptide at 1.10^-9 M)” value [3] was 28.1% and the “% of inhibition … (peptide at 1.10^-9 M)” value [4] was 59.4%.

B8: UM206 (5 S = A) (peptide)
peptide: CNKTAEGMDGCEL
In the case of B8, the “% of inhibition … (peptide at 1.10^-9 M)” value [3] is reported as 74.3% and the “% of inhibition … (peptide at 1.10^-9 M)” value [4] is reported as 87.3%.

B9: UM206 (6 E = A) (peptide)
peptide: CNKTSAGMDGCEL
B9 was tested, and the “% of inhibition … (peptide at 1.10^-9 M)” value [3] was 70.8% and the “% of inhibition … (peptide at 1.10^-9 M)” value [4] was 84.7%.

B10: UM206 (7 G = A) (peptide)
peptide: CNKTSEAMDGCEL
For B10, the “% of inhibition … (peptide at 1.10^-9 M)” value [3] was 52.6% and the “% of inhibition … (peptide at 1.10^-9 M)” value [4] was 63.1%.

B11: UM206 (8 M = A) (peptide)
peptide: CNKTSEGADGCEL
In the case of B11, the “% of inhibition … (peptide at 1.10^-9 M)” value [3] is reported as 67.6% and the “% of inhibition … (peptide at 1.10^-9 M)” value [4] is reported as 85%.

B12: UM206 (9 D = A) (peptide)
peptide: CNKTSEGMAGCEL
With B12 the “% of inhibition … (peptide at 1.10^-9 M)” value [3] was 40.5% and the “% of inhibition … (peptide at 1.10^-9 M)” value [4] was 60.5%.

B13: UM206 (10 G = A) (peptide)
peptide: CNKTSEGMDACEL
B13 was tested, and the “% of inhibition … (peptide at 1.10^-9 M)” value [3] was 69.9% and the “% of inhibition … (peptide at 1.10^-9 M)” value [4] was 83.3%.

B14: UM206 (11 C = A) (peptide)
peptide: CNKTSEGMDGAEL
In the case of B14, the “% of inhibition … (peptide at 1.10^-9 M)” value [3] is reported as 67.2% and the “% of inhibition … (peptide at 1.10^-9 M)” value [4] is reported as 84.9%.

B15: UM206 (12 E = A) (peptide)
peptide: CNKTSEGMDGCAL
For B15, the “% of inhibition … (peptide at 1.10^-9 M)” value [3] was 65.9% and the “% of inhibition … (peptide at 1.10^-9 M)” value [4] was 85.5%.

B16: UM206 (13 L = A) (peptide)
peptide: CNKTSEGMDGCEA
With B16 the “% of inhibition … (peptide at 1.10^-9 M)” value [3] was 65.9% and the “% of inhibition … (peptide at 1.10^-9 M)” value [4] was 86.5%.

B17: UM206 (C = A) (peptide)
peptide: ANKTSEGMDGAEL
B17 was tested, and the “% of inhibition … (peptide at 1.10^-9 M)” value [3] was 0% and the “% of inhibition … (peptide at 1.10^-9 M)” value [4] was 8.39%.

B18: UM206 (C = C-alkyl) (peptide)
peptide: C(alkyl)NKTSEGMDGC(alkyl)EL
modifications: reading uncertain; also: alkyl group not given here
In the case of B18, the “% of inhibition … (peptide at 1.10^-9 M)” value [3] is reported as 1% and the “% of inhibition … (peptide at 1.10^-9 M)” value [4] is reported as 12.4%.

B19: UM206 (C = S) (peptide)
peptide: SNKTSEGMDGSEL
For B19, the “% of inhibition … (peptide at 1.10^-9 M)” value [3] was 0% and the “% of inhibition … (peptide at 1.10^-9 M)” value [4] was 17%.

B20: UM206 - (label cut short in Table 3; taken as UM206 with the C-terminal Glu-Leu deleted) (peptide)
peptide: CNKTSEGMDGC
With B20 the “% of inhibition … (peptide at 1.10^-9 M)” value [3] was 18% and the “% of inhibition … (peptide at 1.10^-9 M)” value [4] was 61.2%.

B21: UM206 (12-13 EL = AA) (peptide)
peptide: CNKTSEGMDGCAA
With B21 the “% of inhibition … (peptide at 1.10^-9 M)” value [3] was 66.8% and the “% of inhibition … (peptide at 1.10^-9 M)” value [4] was 74.3%.

B22: UM206 (4 T = A, 7 G = A, 9 D = A) (peptide)
peptide: CNKASEAMAGCEL
B22 was tested, and the “% of inhibition … (peptide at 1.10^-9 M)” value [3] was 11.2% and the “% of inhibition … (peptide at 1.10^-9 M)” value [4] was 17.5%.

B23: peptide CNVSSHGIDGCDL (SEQ ID NO: 18), derived from the area of Wnt3a homologous to UM206 (peptide)
peptide: CNVSSHGIDGCDL
In the case of B23, the “% of inhibition … (peptide at 1.10^-9 M)” value [3] is reported as 45.3% and the “% of inhibition … (peptide at 1.10^-9 M)” value [4] is reported as 62.4%.
